Molecular target: T1, huCdc7 fused to DNA-binding domain of Gal4 (human, UniProt P04386 1-147; O00311 1-574, limits assumed)
T1 construct: Yeast two-hybrid bait in strain CG1945; also called huCdc7 (two-hybrid bait)
Experiment: yeast two-hybrid assay, lacZ activity
Protocol: In order to determine the region on H37 protein essential for binding with huCdc7, a series of deletion derivatives of H37 at N- and C-terminals as shown in FIG. 7 was prepared, each of them was expressed in yeast as a fusion protein with Gal4 activated domain and an interaction of each deletion derivative with huCdc7 was investigated by means of a two-hybrid assay. […] However, when 50 amino acids at N-terminal were further deleted whereupon the H37 motif C was deleted, an interaction with huCdc7 was completely lost (ΔN3).

Binder | binding result | interaction relative to the full-length clone
H37 deletion derivative ΔP1 fused to Gal4 activation domain (other, not shown: small tags and cut ends) MNSGAMRIHSKGHFQGGIQVKNEKNRPSLKSLKTDNRPEKSKCKPLWGKVFYLDLPSVTISEKLQKDIKDLGGRVEEFLSKDISYLISNKKEAKFAQTLGRISPVPSPESAYTAETTSPHPSHDGSSFKSPDTVCLSRGKLLVEKAIKDHDFIPSNSILSNALSWGVKILHIDDIRYYIEQKKKELYLLKKSSTSVRDGGKRVGSGAQKTRTGRLKKPFVKVEDMSQLYRPFYLQ | no binding | 
H37 deletion derivative ΔN3 fused to Gal4 activation domain (other, not shown: small tags and cut ends, The range is worked out from the printed counts of deleted residues and a length of 674) LETHLLSEQHRNFAQSNQYQVVDDIVSKLVFDFVEYEKDTPKKKRIKYSVGSLSPVSASVLKKTEQKEKVELQHISQKDCQEDDTTVKEQNFLYKETQETEKKLLFISEPIPHPSNELRGLNEKMSNKCSMLSTAEDDIRQNFTQLPLHKNKQECILDISEHTLSENDLEELRVDHYKCNIQASVHVSDFSTDNSGSQPKQKSDTVLFPAKDLKEKDLHSIFTHDSGLITINSSQEHLTVQAKAPFHTPPEEPNECDFKNMDSLPSGKIHRKVKIILGRNRKENLEPNAEFDKRTEFITQEENRICSSPVQSLLDLFQTSEEKSEFLGFTSYTEKSGICNVLDIWEEENSDNLLTAFFSSPSTSTFTGF | no binding | 
H37 deletion derivative ΔB fused to Gal4 activation domain (other, not shown: small tags and cut ends, The range is worked out from the printed count of deleted residues and a length of 674; also called deltaB) MNSGAMRIHSKGHFQGGIQVKNEKNRPSLKSLKTDNRPEKSKCKPLWGKVFYLDLPSVTISEKLQKDIKDLGGRVEEFLSKDISYLISNKKEAKFAQTLGRISPVPSPESAYTAETTSPHPSHDGSSFKSPDTVCLSRGKLLVEKAIKDHDFIPSNSILSNALSWGVKILHIDDIRYYIEQKKKELYLLKKSSTSVRDGGKRVGSGAQKTRTGRLKKPFVKVEDMSQLYRPFYLQLTNMPFINYSIQKPCSPFDVDKPSSMQKQTQVKLRIQTDGDKYGGTSIQLQLKEKKKKGYCECCLQKYED |  | ~10%

From patent publication US6897054 (JAPAN SCIENCE AND TECHNOLOGY AGENCY, dated 2005)
